The values below come from article PMC5902045, “Degenerate Pax2 and Senseless binding motifs improve detection of low-affinity sites required for enhancer specificity”.

One data set addresses Senseless (Sens) (UniProt Q9N658 413-520). As to the kind of experiment: EMSA; Native PAGE EMSA, probe 0.36 uM, LI-COR imaging; protein amounts in ng; buffer, salt, pH and temperature not given (cited to refs 43, 64). The following applies: protein: recombinant; tags: His. (In general: A gel shift assay detects complexes by their altered migration in electrophoresis.)
A further data set concerns the target Pax2 (UniProt Q8IM96 175-301). The description is as above. The following applies: protein: recombinant; tags: His.

Senseless (Sens), sequence (Q9N658 413-520): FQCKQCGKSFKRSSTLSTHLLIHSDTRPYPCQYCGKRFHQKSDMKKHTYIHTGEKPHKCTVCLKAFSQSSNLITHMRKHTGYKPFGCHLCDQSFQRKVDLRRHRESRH
Pax2, sequence (Q8IM96 entry or part of it): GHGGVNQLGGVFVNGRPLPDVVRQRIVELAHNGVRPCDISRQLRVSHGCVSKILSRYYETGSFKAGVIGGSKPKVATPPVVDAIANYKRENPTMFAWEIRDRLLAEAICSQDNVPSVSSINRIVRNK

B1: RhoA-SM/SM (dsDNA)
DNA 1: TCGTTGCAGTTGGTTGATTGACATTTTTATTATGCATGGTTGATTGA
DNA 2: TCAATCAACCATGCATAATAAAAATGTCAATCAACCAACTGCAACGA
As for B1, the binding result with Senseless (Sens) is reported as “no binding”.

B2: RhoA-SM/SWT (dsDNA)
DNA 1: TCGTTGCAGTTGGTTGATTGACATTTTTATTATGCATCATTGATTGA
DNA 2: TCAATCAATGATGCATAATAAAAATGTCAATCAACCAACTGCAACGA
With B2, the binding result with Senseless (Sens) is listed as “binds”.

B3: RhoA-SM/SS (dsDNA)
DNA 1: TCGTTGCAGTTGGTTGATTGACATTTTTATTATGCAGCACTGATTGA
DNA 2: TCAATCAGTGCTGCATAATAAAAATGTCAATCAACCAACTGCAACGA
In the case of B3, in the data set with Senseless (Sens), the binding result is reported as “binds”.

B4: RhoA-WT (dsDNA)
DNA 1: TCGTTGCAGTTCATTGATTGACATTTTTATTATGCATATTCGCTGGT
DNA 2: ACCAGCGAATATGCATAATAAAAATGTCAATCAATGAACTGCAACGA
On to B4, for which the binding result with Senseless (Sens) and with Pax2 was “binds” each time.

B5: RhoA-PSSS (strong Pax2 and Sens sites) (dsDNA)
DNA 1: TCGTCACGGTGCACTGATTGACATTTTTATTATGCATATTCGCTGGT
DNA 2: ACCAGCGAATATGCATAATAAAAATGTCAATCAGTGCACCGTGACGA
As to B5, the binding result in the data set with Senseless (Sens) and with Pax2 was “binds” each time.

B6: RhoA-SS (strong Sens site) (dsDNA)
DNA 1: TCGTTGCAGTGCACTGATTGACATTTTTATTATGCATATTCGCTGGT
DNA 2: ACCAGCGAATATGCATAATAAAAATGTCAATCAGTGCACTGCAACGA
Take B6: the binding result with Senseless (Sens) was “binds”.

B7: RhoA-PM (Pax2 site mutant) (dsDNA)
DNA 1: TCGGGTCAGTTCATTGATTGACATTTTTATTATGCATATTCGCTGGT
DNA 2: ACCAGCGAATATGCATAATAAAAATGTCAATCAATGAACTGACCCGA
Turning to B7, the binding result with Senseless (Sens) was “binds”.

B8: RhoA-PS (strong Pax2 site) (dsDNA)
DNA 1: TCGTCACGGTTCATTGATTGACATTTTTATTATGCATATTCGCTGGT
DNA 2: ACCAGCGAATATGCATAATAAAAATGTCAATCAATGAACCGTGACGA
B8: the binding result with Senseless (Sens) and with Pax2 was “binds” throughout.

B9: RhoA-SM (Sens site mutant) (dsDNA)
DNA 1: TCGTTGCAGTTGGTTGATTGACATTTTTATTATGCATATTCGCTGGT
DNA 2: ACCAGCGAATATGCATAATAAAAATGTCAATCAACCAACTGCAACGA
As for B9, the binding result in the data set with Senseless (Sens) is “no binding”.
